Data taken from patent publication US20150203577A1 (Chugai, published 2015).
Changes are numbered by the printed parent chain. Names may count otherwise.

Columns and labels:
mouse FcγRII [1] = target: T1, mouse FcγRII (mouse, UniProt P08101 30-210); assay: SPR Biacore T200, KD ratio
T1 construct: also called mFcγRII; mFcgRII
T1 sequence: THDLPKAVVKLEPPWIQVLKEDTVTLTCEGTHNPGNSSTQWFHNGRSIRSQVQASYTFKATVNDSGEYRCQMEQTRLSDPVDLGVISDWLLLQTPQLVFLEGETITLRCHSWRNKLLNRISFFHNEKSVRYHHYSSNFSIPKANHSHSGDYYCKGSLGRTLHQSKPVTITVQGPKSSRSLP

mouse FcγRII [2] = target: T1, mouse FcγRII; assay: SPR Biacore T200, KD ratio; upper end tied to MB397 by Table 8
[3] = target: T2, mouse FcγRIII extracellular domain, C-terminally His-tagged (mouse, UniProt P08508 31-215); assay: SPR Biacore T200, KD ratio
T2 construct: the whole entry is named; also called mFcγRIII; mFcgRIII
T2 chain: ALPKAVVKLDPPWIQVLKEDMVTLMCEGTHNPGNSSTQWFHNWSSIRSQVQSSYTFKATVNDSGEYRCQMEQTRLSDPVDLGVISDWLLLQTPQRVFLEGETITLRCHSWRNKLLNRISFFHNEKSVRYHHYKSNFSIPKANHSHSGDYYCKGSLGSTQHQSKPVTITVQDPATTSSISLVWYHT

[4] = target: T3, mouse FcγRII extracellular domain, C-terminally His-tagged (mouse, UniProt P08101 30-210); assay: SPR Biacore T200
T3 construct: the whole entry is named; also called mFcγRII; mFcgRII
T3 sequence: T1 sequence

mouse FcγRII [5] = target: T1, mouse FcγRII; assay: SPR Biacore T200, KD ratio; upper end tied to MB682 by Table 20
mouse FcγRII [6] = target: T1, mouse FcγRII; assay: SPR Biacore T200, KD ratio; lower end tied to MB425 by Table 8
mouse FcγRII [7] = target: T1, mouse FcγRII; assay: SPR Biacore T200, KD ratio; lower end tied to MB684 by Table 20

B1: H237-MB397/MRAL-k0 (antibody, mouse IgG1, kappa)
heavy: QVQLQESGPGLVKPSETLSLTCAVSGHSISHDHAWSWVRQPPGEGLEWIGFISYSGITNYNPSLQGRVTISRDNSKNTLYLQMNSLRAEDTAVYYCARSLARTTAMDYWGEGTLVTVSSAKTTPPSVYPLAPGSAAQTNSMVTLGCLVKGYFPEPVTVTWNSGSLSSGVHTFPAVLQSDLYTLSSSVTVPSSTWPSETVTCNVAHPASSTKVDKKIVPRDCGCKPCICETYEVEDVFIFPPKPKDVLTITLTPKVTCVVVDISKDDPEVQFSWFVDDVEVHTAQTQPREEQFNSTFRSVSELPIMHQDWLNGKEFKCRVNSAAFPAPIEKTISKTKGRPKAPQVYTIPPPKEQMAKDKVSLTCMITDFFPEDITVEWQWNGQPAENYKNTQPIMDTDGSYFVYSKLNVQKSNWEAGNTFTCSVLHEGLHNHHTEKSLSHSPGK
light: not shown
notes: mIgG1 with T230E/V231T/P232Y/S238E/S239D; also called template T4; copies: 2 + 2
relative mFcγRII-binding activity (H237-mIgG1/MRAL-k0 = 1) (mouse FcγRII [1]): > 500 fold
relative mFcγRII-binding activity (H237-mIgG1/MRAL-k0 = 1) (mouse FcγRII [2]): 600 fold

B2: H237-MB656/MRAL-k0 (antibody, mouse IgG1, kappa)
heavy: B1 heavy with E229I, T230P, Y231A, D235F
light: not shown
notes: copies: 2 + 2
relative mFcγRIII-binding activity (mIgG1 = 1) [3]: 0.02 fold
binding result [4]: no binding

B3: MB682 (antibody)
heavy: B1 heavy with T230P, Y231K
light: not shown
notes: copies: 2 + 2
relative mFcγRII-binding activity (H237-mIgG1/MRAL-k0 = 1) (mouse FcγRII [5]): 5 to 15 fold

B4: H237-MB425/MRAL-k0 (antibody, mouse IgG1, kappa)
heavy: B1 heavy with E229I, T230P, Y231A
light: not shown
notes: mIgG1 with T230I/V231P/P232A/S238E/S239D; also called template T7; copies: 2 + 2
relative mFcγRII-binding activity (H237-mIgG1/MRAL-k0 = 1) (mouse FcγRII [6]): 200 fold

B5: MB684 (antibody)
heavy: B1 heavy with E229Q, T230P, Y231K
light: not shown
notes: copies: 2 + 2
relative mFcγRII-binding activity (H237-mIgG1/MRAL-k0 = 1) (mouse FcγRII [7]): 5 to 15 fold
